Results published in patent US12186374B2 (Sanofi-Aventis Deutschland GmbH, priority 2014, dated 2025).

Assays:
[1] = tested on: patients with Type 2 diabetes mellitus (T2DM); test: Treatment-emergent adverse events incl. serious, fatal, leading to discontinuation (Example 2); details: Safety population
[2] = tested on: patients with Type 2 diabetes mellitus (T2DM); test: Major cardiovascular events adjudicated by CAC (Example 2); details: on-treatment period
[3] = SOC, PT ≥ 3% in any treatment group

For “Gly(A21)-Arg(B31)-Arg(B32)-human insulin [Insulin Glargine]”, the “TEAE leading to permanent treatment discontinuation: Anaphylactic reaction” value ([1]; PT) was 0 n (%), the “TEAE leading to permanent treatment discontinuation: Atrial fibrillation” value ([1]; PT) was 0 n (%) and the “TEAE leading to permanent treatment discontinuation: Back pain” value ([1]; PT) was 0 n (%). For the same substance, the “TEAE leading to permanent treatment discontinuation: Bacteraemia” value ([1]; PT) was 0 n (%), the “TEAE leading to permanent treatment discontinuation: Blood creatinine increased” value ([1]; PT) was 0 n (%) and the “TEAE leading to permanent treatment discontinuation: Bronchitis” value ([1]; PT) was 1 (0.2%) n (%). The “TEAE leading to permanent treatment discontinuation: Cardiac failure acute” value ([1]; PT) was 1 (0.2%) n (%), the “TEAE leading to permanent treatment discontinuation: Cardiac failure congestive” value ([1]; PT) was 0 n (%) and the “TEAE leading to permanent treatment discontinuation: Colitis” value ([1]; PT) was 0 n (%). The “TEAE leading to permanent treatment discontinuation: Comminuted fracture” value ([1]; PT) was 1 (0.2%) n (%), the “TEAE leading to permanent treatment discontinuation: Cough” value ([1]; PT) was 1 (0.2%) n (%) and the “TEAE leading to permanent treatment discontinuation: Death” value ([1]; PT) was 0 n (%). The “TEAE leading to permanent treatment discontinuation: Decreased appetite” value ([1]; PT) was 0 n (%), the “TEAE leading to permanent treatment discontinuation: Depression” value ([1]; PT) was 1 (0.2%) n (%) and the “TEAE leading to permanent treatment discontinuation: Diabetic mononeuropathy” value ([1]; PT) was 0 n (%). The “TEAE leading to permanent treatment discontinuation: Diarrhoea” value ([1]; PT) was 0 n (%), the “TEAE leading to permanent treatment discontinuation: Drug hypersensitivity” value ([1]; PT) was 1 (0.2%) n (%) and the “TEAE leading to permanent treatment discontinuation: Dyspepsia” value ([1]; PT) was 1 (0.2%) n (%). The “TEAE leading to permanent treatment discontinuation: Extradural abscess” value ([1]; PT) was 0 n (%), the “TEAE leading to permanent treatment discontinuation: Fatigue” value ([1]; PT) was 1 (0.2%) n (%) and the “TEAE leading to permanent treatment discontinuation: Gastritis erosive” value ([1]; PT) was 0 n (%). For the same substance, the “TEAE leading to permanent treatment discontinuation: Headache” value ([1]; PT) was 1 (0.2%) n (%), the “TEAE leading to permanent treatment discontinuation: Injection site erythema” value ([1]; PT) was 0 n (%) and the “TEAE leading to permanent treatment discontinuation: Insomnia” value ([1]; PT) was 0 n (%). The “TEAE leading to permanent treatment discontinuation: Lipase increased” value ([1]; PT) was 1 (0.2%) n (%), the “TEAE leading to permanent treatment discontinuation: Lung cancer metastatic” value ([1]; PT) was 0 n (%) and the “TEAE leading to permanent treatment discontinuation: Lung neoplasm malignant” value ([1]; PT) was 0 n (%). The “TEAE leading to permanent treatment discontinuation: Meningitis staphylococcal” value ([1]; PT) was 0 n (%), the “TEAE leading to permanent treatment discontinuation: Myocardial infarction” value ([1]; PT) was 1 (0.2%) n (%) and the “TEAE leading to permanent treatment discontinuation: Nausea” value ([1]; PT) was 0 n (%). For the same substance, the “TEAE leading to permanent treatment discontinuation: Pancreatic carcinoma” value ([1]; PT) was 1 (0.2%) n (%), the “TEAE leading to permanent treatment discontinuation: Rash” value ([1]; PT) was 1 (0.2%) n (%) and the “TEAE leading to permanent treatment discontinuation: Skin burning sensation” value ([1]; PT) was 0 n (%). For the same substance, the “TEAE leading to permanent treatment discontinuation: Urinary tract infection” value ([1]; PT) was 0 n (%), the “TEAE leading to permanent treatment discontinuation: Urticaria” value ([1]; PT) was 0 n (%) and the “TEAE leading to permanent treatment discontinuation: Vomiting” value ([1]; PT) was 0 n (%). For the same substance, the “TEAE: Gastrointestinal disorders” value [1, 3] was 59 (12.6%) n (%), the “TEAE: Infections and infestations” value [1, 3] was 126 (27.0%) n (%) and the “TEAE: Musculoskeletal and connective tissue disorders” value [1, 3] was 41 (8.8%) n (%). The “TEAE: Nervous system disorders” value [1, 3] was 30 (6.4%) n (%), the “Serious TEAE: Blood and lymphatic system disorders” value ([1]; SOC) was 1 (0.2%) n (%) and the “Serious TEAE: Cardiac disorders” value ([1]; SOC) was 6 (1.3%) n (%). The “Serious TEAE: Gastrointestinal disorders” value ([1]; SOC) was 0 n (%), the “Serious TEAE: General disorders and administration site conditions” value ([1]; SOC) was 1 (0.2%) n (%) and the “Serious TEAE: Hepatobiliary disorders” value ([1]; SOC) was 0 n (%). The “Serious TEAE: Immune system disorders” value ([1]; SOC) was 0 n (%), the “Serious TEAE: Infections and infestations” value ([1]; SOC) was 2 (0.4%) n (%) and the “Serious TEAE: Injury, poisoning and procedural complications” value ([1]; SOC) was 1 (0.2%) n (%). For the same substance, the “Serious TEAE: Investigations” value ([1]; SOC) was 1 (0.2%) n (%), the “Serious TEAE: Metabolism and nutrition disorders” value ([1]; SOC) was 0 n (%) and the “Serious TEAE: Musculoskeletal and connective tissue disorders” value ([1]; SOC) was 1 (0.2%) n (%). For the same substance, the “Serious TEAE: Neoplasms benign, malignant and unspecified (incl cysts and polyps)” value ([1]; SOC) was 4 (0.9%) n (%), the “Serious TEAE: Nervous system disorders” value ([1]; SOC) was 1 (0.2%) n (%) and the “Serious TEAE: Renal and urinary disorders” value ([1]; SOC) was 2 (0.4%) n (%). The “Serious TEAE: Reproductive system and breast disorders” value ([1]; SOC) was 0 n (%), the “Serious TEAE: Respiratory, thoracic and mediastinal disorders” value ([1]; SOC) was 3 (0.6%) n (%) and the “Serious TEAE: Skin and subcutaneous tissue disorders” value ([1]; SOC) was 0 n (%). The “Serious TEAE: Vascular disorders” value ([1]; SOC) was 1 (0.2%) n (%), the “TEAE leading to death: Cardiac disorders” value ([1]; SOC) was 2 (0.4%) n (%) and the “TEAE leading to death: General disorders and administration site conditions” value ([1]; SOC) was 0 n (%). For the same substance, the “TEAE leading to death: Neoplasms benign, malignant and unspecified (incl cysts and polyps)” value ([1]; SOC) was 1 (0.2%) n (%), the “TEAE leading to death: Respiratory, thoracic and mediastinal disorders” value ([1]; SOC) was 1 (0.2%) n (%) and the “TEAE leading to permanent treatment discontinuation: Cardiac disorders” value ([1]; SOC) was 3 (0.6%) n (%). For the same substance, the “TEAE leading to permanent treatment discontinuation: Gastrointestinal disorders” value ([1]; SOC) was 1 (0.2%) n (%), the “TEAE leading to permanent treatment discontinuation: General disorders and administration site conditions” value ([1]; SOC) was 1 (0.2%) n (%) and the “TEAE leading to permanent treatment discontinuation: Immune system disorders” value ([1]; SOC) was 1 (0.2%) n (%). The “TEAE leading to permanent treatment discontinuation: Infections and infestations” value ([1]; SOC) was 1 (0.2%) n (%), the “TEAE leading to permanent treatment discontinuation: Injury, poisoning and procedural complications” value ([1]; SOC) was 1 (0.2%) n (%) and the “TEAE leading to permanent treatment discontinuation: Investigations” value ([1]; SOC) was 1 (0.2%) n (%). The “TEAE leading to permanent treatment discontinuation: Metabolism and nutrition disorders” value ([1]; SOC) was 0 n (%), the “TEAE leading to permanent treatment discontinuation: Musculoskeletal and connective tissue disorders” value ([1]; SOC) was 0 n (%) and the “TEAE leading to permanent treatment discontinuation: Neoplasms benign, malignant and unspecified (incl cysts and polyps)” value ([1]; SOC) was 1 (0.2%) n (%). The “TEAE leading to permanent treatment discontinuation: Nervous system disorders” value ([1]; SOC) was 1 (0.2%) n (%), the “TEAE leading to permanent treatment discontinuation: Psychiatric disorders” value ([1]; SOC) was 1 (0.2%) n (%) and the “TEAE leading to permanent treatment discontinuation: Respiratory, thoracic and mediastinal disorders” value ([1]; SOC) was 2 (0.4%) n (%). The “TEAE leading to permanent treatment discontinuation: Skin and subcutaneous tissue disorders” value ([1]; SOC) was 1 (0.2%) n (%), the “Patients with any TEAE” value [1] was 227 (48.6%) n (%) and the “Patients with any TEAE leading to death” value [1] was 3 (0.6%) n (%). For the same substance, the “Patients with any TEAE leading to permanent treatment discontinuation” value [1] was 9 (1.9%) n (%), the “Patients with any serious TEAE” value [1] was 19 (4.1%) n (%) and the “TEAEs adjudicated as major cardiovascular events by CAC, % of patients” value ([2]; Example 2) was 1.5%. For the same substance, the “TEAEs adjudicated as major cardiovascular events by CAC, number of patients” value ([2]; Example 2) was 7 patients, the “Major cardiovascular events by CAC: Cardiovascular death” value ([2]; Safety population) was 2 (0.4%) n(%) and the “Major cardiovascular events by CAC: Coronary revascularization procedure” value ([2]; Safety population) was 1 (0.2%) n(%). For the same substance, the “Major cardiovascular events by CAC: Hospitalization for heart failure” value ([2]; Safety population) was 2 (0.4%) n(%), the “Major cardiovascular events by CAC: Hospitalization for unstable angina” value ([2]; Safety population) was 1 (0.2%) n(%) and the “Major cardiovascular events by CAC: Non-fatal myocardial infarction” value ([2]; Safety population) was 0 n(%). The “Major cardiovascular events by CAC: Non-fatal stroke” value ([2]; Safety population) was 1 (0.2%) n(%) and the “Patients with events adjudicated as major cardiovascular events by CAC: Any” value ([2]; Safety population) was 7 (1.5%) n(%).
